Measured values reported in publication PMC8406188 (mBio, 2021).
Substitutions are numbered along the chain they refer to. In names and notes the source's numbering stands. Several values for one entry are separate records, joined by “and”; a condition that tells them apart may be missing. Equal values may be shown once.

What was measured:
[1] = target: OmpC(K281am) with benzoyl phenylalanine (Bpa) at residue 281 (E. coli) (UniProt P06996); test: SDS-PAGE of unheated and heated samples (heat-sensitive oligomers); OmpC amber mutants synthesized in PURExpress lacking release factor 1 with FluoroTect, tRNATAG-BPA, SurA, Rc LPS and Bam POPC proteoliposomes; 30 min, 30°C; with or without UV
[2] = target: OmpC(K255am) with benzoyl phenylalanine (Bpa) at residue 255 (E. coli) (UniProt P06996); test: as above
[3] = target: the molecule itself; test: SDS-PAGE of unheated and heated samples (heat-sensitive oligomers), with proteinase K; OmpC synthesized in PURExpress with FluoroTect, SurA, smooth LPS from E. coli O55:B5 (0.5 mg/ml) and Bam DLPC proteoliposomes; 30 min, 37°C
[4] = target: the molecule itself; test: SDS-PAGE of unheated and heated samples (heat-sensitive oligomers), with proteinase K; 0.2 μM urea-denatured OmpC S71C-BODIPY-FL added to SurA, Bam proteoliposomes (text: Bam DLPC; legend: Bam DMPC) and Rc LPS in a complete mixture of PURExpress components; 30 min, 37°C
[5] = target: the molecule itself; test: SDS-PAGE of unheated samples (oligomers), colloidal blue staining; urea-denatured OmpC folded into 1% DDM-0.4% DDG, 50 mM Tris pH 8.0, 1 mM DTT, 0.1 mM EDTA; 37°C, 24 h

OmpC(K281am) with benzoyl phenylalanine (Bpa) at residue 281 (from UniProt P06996 22-367) (natural protein)
stoichiometry N [1]: 3

OmpC(K255am) with benzoyl phenylalanine (Bpa) at residue 255 (from UniProt P06996 22-367) (natural protein)
stoichiometry N [2]: 3

B1: E. coli OmpC (wild type), synthesized in vitro without its signal peptide (natural protein, UniProt P06996 22-367, looked up)
chain: AEVYNKDGNKLDLYGKVDGLHYFSDNKDVDGDQTYMRLGFKGETQVTDQLTGYGQWEYQIQGNSAENENNSWTRVAFAGLKFQDVGSFDYGRNYGVVYDVTSWTDVLPEFGGDTYGSDNFMQQRGNGFATYRNTDFFGLVDGLNFAVQYQGKNGNPSGEGFTSGVTNNGRDALRQNGDGVGGSITYDYEGFGIGGAISSSKRTDAQNTAAYIGNGDRAETYTGGLKYDANNIYLAAQYTQTYNATRVGSLGWANKAQNFEAVAQYQFDFGLRPSLAYLQSKGKNLGRGYDDEDILKYVDVGATYYFNKNMSTYVDYKINLLDDNQFTRDAGINTDNIVALGLVYQF
modifications: fluorescent lysine residues (BODIPY-FL at the ε position, from FluoroTect GreenLys) incorporated during synthesis
stoichiometry N [3]: 2 and 3

B2: Urea-denatured OmpC S71C, fluorescently labeled at residue 71 with BODIPY-FL (natural protein, E. coli, UniProt P06996 22-367, looked up)
chain: B1 chain with S71C
modifications: BODIPY-FL maleimide on the cysteine at 71
stoichiometry N [4]: 2 and 3

B3: Urea-denatured wild-type OmpC purified from inclusion bodies (natural protein, E. coli, UniProt P06996 22-367, looked up)
chain: B1 chain
stoichiometry N [5]: 3
